Where “and” joins values, the source holds several entries; their conditions need not be identical. Equal entries are not always repeated.
B1: MAB1 IgG1 (antibody)
heavy: not shown
light: EIVLTQSPATLSLSPGERATLSCRASSSVSYMHWYQQKPGQAPRPWIYATSNRATGIPARFSGSGSGTDYTLTISSLEPEDFAVYYCQQFGAWPWTFGQGTKVEIKRTVAAPSVFIFPPSDEQLKSGTASVVCLLNNFYPREAKVQWKVDNALQSGNSQESVTEQDSKDSTYSLSSTLTLSKADYEKHKVYACEVTHQGLSSPVTKSFNRGEC
notes: Human IgG1, kappa
B2: MAB10 (antibody, human IgG1, kappa)
heavy: QVTLKESGPALVKPTQTLTLTCSFSGFSLSTSGMGVGWIRQPPGKALEWIAHIWWDDDKYYNTALKTRLTISKDTSKNQVVLTMTNMDPVDTATYYCARIDWDGFAYWGQGTLVTVSSASTKGPSVFPLAPSSKSTSGGTAALGCLVKDYFPEPVTVSWNSGALTSGVHTFPAVLQSSGLYSLSSVVTVPSSSLGTQTYICNVNHKPSNTKVDKKVEPKSCDKTHTCPPCPAPELLGGPSVFLFPPKPKDTLYITREPEVTCVVVDVSHEDPEVKFNWYVDGVEVHNAKTKPREEQYNSTYRVVSVLTVLHQDWLNGKEYKCKVSNKALPAPIEKTISKAKGQPREPQVYTLPPSRDELTKNQVSLTCLVKGFYPSDIAVEWESNGQPENNYKTTPPVLDSDGSFFLYSKLTVDKSRWQQGNVFSCSVMHEALHNHYTQKSLSLSPGK
light: EIVLTQSPATLSLSPGERATLSCRASSSVSYMHWYQQKPGQAPRPWIYATSNRATGIPARFSGSGSGTDYTLTISSLEPEDFAVYYCQQFGAWPWTFGQGTKVEIKRTVAAPSVFIFPPSDEQLKSGTASVVCLLNNFYPREAKVQWKVDNALQSGNSQESVTEQDSKDSTYSLSSTLTLSKADYEKHKVYACEVTHQGLSSPVTKSFNRGEC
notes: MAB1 with M252Y, S254T and T256E (EU numbering) in the IgG1 Fc; also called MAB1 Heavy Chain + YTE
B3: GBR 830 (telazorlimab) (antibody, human IgG1, kappa)
heavy: not shown
light: EIVLTQSPATLSLSPGERATLSCRASSSVSYMHWYQQKPGQAPRPWIYATSNRATGIPARFSGSGSGTDYTLTISSLEPEDFAVYYCQQWSSNPWTFGQGTKVEIKRTVAAPSVFIFPPSDEQLKSGTASVVCLLNNFYPREAKVQWKVDNALQSGNSQESVTEQDSKDSTYSLSSTLTLSKADYEKHKVYACEVTHQGLSSPVTKSFNRGEC
notes: IgG1; also called Antibody 830; ISB830

What was measured:
[1] = target: T1, human OX40 (TNFRSF4, CD134) on cells (human, UniProt P43489 29-277); experiment: cell-based or functional assay
T1 sequence: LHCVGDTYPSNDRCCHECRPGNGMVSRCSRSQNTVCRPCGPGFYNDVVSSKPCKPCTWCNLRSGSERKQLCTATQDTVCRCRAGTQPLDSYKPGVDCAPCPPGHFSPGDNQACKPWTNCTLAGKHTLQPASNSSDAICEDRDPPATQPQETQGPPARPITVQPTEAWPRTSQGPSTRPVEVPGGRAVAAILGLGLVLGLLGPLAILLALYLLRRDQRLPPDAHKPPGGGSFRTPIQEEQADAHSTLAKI

[2] = target: T2, Human FcRn protein (Acro Biosystems, catalog NO: FCN-H52W7) (human, UniProt P55899 24-297; P61769 21-119); experiment: SPR Biacore 8K+, antibody immobilised, FcRn analyte, pH 6.0; pH 6.0
T2 construct: also called huFcRn
T2 sequence (P55899 24-297 limits assumed, chain 1 of 2): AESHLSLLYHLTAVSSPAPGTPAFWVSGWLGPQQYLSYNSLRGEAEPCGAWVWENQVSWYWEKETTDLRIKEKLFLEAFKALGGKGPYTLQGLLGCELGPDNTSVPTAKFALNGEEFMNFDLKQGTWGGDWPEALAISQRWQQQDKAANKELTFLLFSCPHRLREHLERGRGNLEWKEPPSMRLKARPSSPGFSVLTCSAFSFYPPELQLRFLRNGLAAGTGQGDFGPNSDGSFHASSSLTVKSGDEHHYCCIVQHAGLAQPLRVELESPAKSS
T2 sequence (P61769 21-119 limits assumed, chain 2 of 2): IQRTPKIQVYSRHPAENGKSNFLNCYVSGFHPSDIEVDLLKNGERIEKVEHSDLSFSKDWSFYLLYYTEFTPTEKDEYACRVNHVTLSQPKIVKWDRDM

[3] = target: T1, human OX40 (TNFRSF4, CD134) on cells; experiment: flow cytometry on Jurkat-NFκB (OX40) cells, detection with anti-human IgG Fc-AF647
[4] = target: T3, cynomolgus OX40-ECD-his (cynomolgus); experiment: SPR Biacore T200, IgG captured by anti-human antibody, antigen as analyte, 1:1 Langmuir
T3 construct: extracellular domain; also called Cyno OX40

[5] = target: T4, human OX40-CRD-avi-his (human, UniProt P43489 29-170, limits assumed); experiment: as above
T4 construct: Only the CRD region of the ECD was used
T4 sequence: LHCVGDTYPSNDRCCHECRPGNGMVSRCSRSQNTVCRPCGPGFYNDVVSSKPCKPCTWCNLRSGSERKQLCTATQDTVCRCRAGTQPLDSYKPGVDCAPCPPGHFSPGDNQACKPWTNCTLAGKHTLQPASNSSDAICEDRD

[6] = target: T1, human OX40 (TNFRSF4, CD134) on cells; experiment: cell-based or functional assay; remark: listed apart in the source
[7] = target: T1, human OX40 (TNFRSF4, CD134) on cells; experiment: flow cytometry on Jurkat-NF-κB-OX40 cells, detection with PE anti-human IgG Fc, occupancy in % of the saturating dose; in the presence of 5 µg/ml OX40L; time point not stated on the sheet
[8] = target: T1, human OX40 (TNFRSF4, CD134) on cells; experiment: cell-based or functional assay; remark: listed apart in the source
[9] = target: T1, human OX40 (TNFRSF4, CD134) on cells; experiment: cell-based or functional assay; remark: listed apart in the source
[10] = target: T1, human OX40 (TNFRSF4, CD134) on cells; experiment: cell-based or functional assay; remark: listed apart in the source
[11] = target: T1, human OX40 (TNFRSF4, CD134) on cells; experiment: cell-based or functional assay; remark: listed apart in the source
[12] = target: T5, Human OX40 (Acro Biosystems, catalog NO: OXO-H5224) protein (human, UniProt P43489 29-216); experiment: SPR Biacore 8K+, single cycle kinetics, antibody captured by anti-human Fc, OX40 analyte, pH 7.4, 25 °C
T5 construct: Bought protein; also called recombinant human OX40 receptor; recombinant human OX40 protein
T5 sequence: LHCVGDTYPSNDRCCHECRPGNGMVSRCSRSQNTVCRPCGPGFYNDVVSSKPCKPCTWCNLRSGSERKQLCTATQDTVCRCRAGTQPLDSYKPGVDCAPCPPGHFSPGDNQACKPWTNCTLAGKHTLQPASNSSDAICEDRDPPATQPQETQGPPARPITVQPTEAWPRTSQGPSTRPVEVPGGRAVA

[13] = target: T5, Human OX40 (Acro Biosystems, catalog …); experiment: SPR Biacore 8K+
[14] = target: T6, Human (hu) OX40 protein (Example 5 cross reactivity) (human, UniProt P43489 29-216, limits assumed); experiment: SPR Biacore 8K+, single cycle kinetics, MAB10 captured by anti-human Fc, OX40 analyte
T6 construct: whole entry named
T6 sequence: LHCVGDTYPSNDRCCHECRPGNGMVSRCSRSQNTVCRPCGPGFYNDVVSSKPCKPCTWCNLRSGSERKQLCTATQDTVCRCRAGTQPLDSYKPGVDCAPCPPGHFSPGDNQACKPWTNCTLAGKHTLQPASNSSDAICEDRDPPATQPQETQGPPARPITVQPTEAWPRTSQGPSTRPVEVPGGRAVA

[15] = target: T7, rabbit (rb) OX40 protein (rabbit); experiment: as above
T7 construct: also called Rabbit OX40

[16] = target: cynomolgus monkey (cy) OX40 protein (Example 5) (cynomolgus monkey); experiment: as above
[17] = target: Human CD64 (FcγRI), Sino Biological 10256-H08H (human, UniProt P12314 16-288); experiment: SPR Biacore 8K+, ratio of KD values
Sequence of Human CD64 (FcγRI), Sino Biological 10256-H08H (P12314 16-288 limits assumed): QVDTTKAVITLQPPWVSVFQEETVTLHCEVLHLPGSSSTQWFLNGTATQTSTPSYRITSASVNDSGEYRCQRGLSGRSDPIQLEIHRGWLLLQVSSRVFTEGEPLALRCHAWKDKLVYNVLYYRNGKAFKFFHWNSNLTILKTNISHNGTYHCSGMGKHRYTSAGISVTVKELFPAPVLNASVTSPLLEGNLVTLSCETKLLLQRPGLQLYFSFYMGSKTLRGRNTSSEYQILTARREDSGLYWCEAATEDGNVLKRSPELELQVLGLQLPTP

[18] = target: T8, Human CD32a (167 His), Sino Biological 10374-H08H1 (human, UniProt P12318 34-218); experiment: SPR Biacore 8K+, ratio of KD values
T8 construct: also called FcγRIIa167H
T8 sequence (looked up): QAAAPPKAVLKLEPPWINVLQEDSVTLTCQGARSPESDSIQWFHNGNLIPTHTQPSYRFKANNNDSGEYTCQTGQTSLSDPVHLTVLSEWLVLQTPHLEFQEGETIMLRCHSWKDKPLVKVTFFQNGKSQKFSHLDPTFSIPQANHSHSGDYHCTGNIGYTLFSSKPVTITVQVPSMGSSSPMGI

[19] = target: T9, Human CD16a (F176V), Sino Biological 10389-H08H1 (human, UniProt P08637 17-208); experiment: SPR Biacore 8K+, ratio of KD values
T9 construct: also called FcγRIIIa176V
T9 sequence (P08637 17-208 F176V limits assumed): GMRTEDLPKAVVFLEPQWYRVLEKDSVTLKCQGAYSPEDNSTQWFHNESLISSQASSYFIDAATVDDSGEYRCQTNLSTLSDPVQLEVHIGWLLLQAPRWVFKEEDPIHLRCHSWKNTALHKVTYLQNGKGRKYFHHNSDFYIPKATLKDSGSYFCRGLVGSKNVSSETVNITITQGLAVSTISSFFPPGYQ

Binder | average proliferation index (Av), coated T cell agonism assay [1] | Kd [2] [nM] | EC50 (read off the curve) [3] [µg/mL] | Kd [4] [nM] | Kd [5] [nM] | koff [5] [s⁻¹] | kon [5] [M⁻¹ s⁻¹] | Fold diff to MAB10, maximum ADCC, regulatory T cells [6] [fold] | Maximum killing (%), ADCC, regulatory T cells [6] [%] | EC50 (read off the curve) [7] [nM] | ADCC EC50, in vitro differentiated Tregs [8] | ADCC EC50, activated T cells [9] | EC50, inhibition of T cell proliferation [11] | Kd [12] [nM] | koff [12] [s⁻¹] | kon [12] [M⁻¹ s⁻¹] | fold increase in binding affinity against GBR830 [13] [fold] | further results
B1 | 0.97 | 102 | ~0.09 | 557 | 6 | 0.00163 | 274000 | 2.27 | 61.9 | ~0.4 | 0.089 nM and 0.015 µg/mL | 0.026 nM and 0.004 ug/ml | 0.17 nM and 0.24 ug/ml | 6.8 | 0.0016 | 230000 | 8 | koff [4]: 0.0405 s⁻¹; kon [4]: 72700 M⁻¹ s⁻¹; Fold Change to GBR 830, ADCC EC50, Tregs [8]: 74 fold; Fold Change to GBR 830, ADCC EC50, activated T cells [9]: 3.25 fold; fold decrease in ADCC of activated T cells against KHK4083 [10]: 3 fold; Fold change to GBR 830, proliferation EC50 [11]: 33 fold
B2 | – | 11.5 | – | – | – | – | – | – | 27.3 | ~0.7 | – | – | – | 7.2 | 0.0016 | 230000 | 8 | Kd [14]: 6.7 nM; koff [14]: 0.0021 s⁻¹; kon [14]: 300000 M⁻¹ s⁻¹; Kd [15]: 3300 nM; koff [15]: 0.03 s⁻¹; kon [15]: 9000 M⁻¹ s⁻¹; Kd [16]: 268 nM; koff [16]: 0.052 s⁻¹; kon [16]: 200000 M⁻¹ s⁻¹; EC50 (inhibition) of NFκB signaling, Jurkat-NFκB-OX40 cells, 0.07 µg/mL OX40L [10]: 0.79 nM; EC50 (inhibition) of NFκB signaling, Jurkat-NFκB-OX40 cells, 5 µg/mL OX40L [10]: 4.59 nM; fold-change of KD relative to MAB1 [17]: 1.6 fold; fold-change of KD relative to MAB1 [18]: 3.1 fold; fold-change of KD relative to MAB1 [19]: 2.7 fold
B3 | 0.98 | 112 | ~0.3 | 3040 | 80.4 | 0.00654 | 81300 | 1.61 | 44.1 | – | 0.833 nM and 0.121 µg/mL | 0.078 nM and 0.13 ug/ml | 5.67 nM and 0.833 ug/ml | 59.3 | 0.0086 | 150000 | – | –

From patent publication US20250353921A1 (ASTRIA THERAPEUTICS, published 2025)
